In article PMC6411775:
Several values for one entry are separate records, joined by “and”; a condition that tells them apart may be missing. Equal entries are not always repeated.

Target: full length human histone 3 lysine 4 demethylase KDM5B, His6 tag cleaved (human) (UniProt Q9UGL1)
Test: SPR; KDM5B immobilised by amine coupling (490 RU and 975 RU); NCPs injected in eight concentrations (two-fold dilutions from 250 nM); 15 °C; 20 mM Hepes, 300 mM NaCl, 1 mM EDTA, 0.005% Tween 20, 1 mM DTT; steady state, 1:1 model; apparent

Sequence of UniProt Q9UGL1 (Q9UGL1 whole entry): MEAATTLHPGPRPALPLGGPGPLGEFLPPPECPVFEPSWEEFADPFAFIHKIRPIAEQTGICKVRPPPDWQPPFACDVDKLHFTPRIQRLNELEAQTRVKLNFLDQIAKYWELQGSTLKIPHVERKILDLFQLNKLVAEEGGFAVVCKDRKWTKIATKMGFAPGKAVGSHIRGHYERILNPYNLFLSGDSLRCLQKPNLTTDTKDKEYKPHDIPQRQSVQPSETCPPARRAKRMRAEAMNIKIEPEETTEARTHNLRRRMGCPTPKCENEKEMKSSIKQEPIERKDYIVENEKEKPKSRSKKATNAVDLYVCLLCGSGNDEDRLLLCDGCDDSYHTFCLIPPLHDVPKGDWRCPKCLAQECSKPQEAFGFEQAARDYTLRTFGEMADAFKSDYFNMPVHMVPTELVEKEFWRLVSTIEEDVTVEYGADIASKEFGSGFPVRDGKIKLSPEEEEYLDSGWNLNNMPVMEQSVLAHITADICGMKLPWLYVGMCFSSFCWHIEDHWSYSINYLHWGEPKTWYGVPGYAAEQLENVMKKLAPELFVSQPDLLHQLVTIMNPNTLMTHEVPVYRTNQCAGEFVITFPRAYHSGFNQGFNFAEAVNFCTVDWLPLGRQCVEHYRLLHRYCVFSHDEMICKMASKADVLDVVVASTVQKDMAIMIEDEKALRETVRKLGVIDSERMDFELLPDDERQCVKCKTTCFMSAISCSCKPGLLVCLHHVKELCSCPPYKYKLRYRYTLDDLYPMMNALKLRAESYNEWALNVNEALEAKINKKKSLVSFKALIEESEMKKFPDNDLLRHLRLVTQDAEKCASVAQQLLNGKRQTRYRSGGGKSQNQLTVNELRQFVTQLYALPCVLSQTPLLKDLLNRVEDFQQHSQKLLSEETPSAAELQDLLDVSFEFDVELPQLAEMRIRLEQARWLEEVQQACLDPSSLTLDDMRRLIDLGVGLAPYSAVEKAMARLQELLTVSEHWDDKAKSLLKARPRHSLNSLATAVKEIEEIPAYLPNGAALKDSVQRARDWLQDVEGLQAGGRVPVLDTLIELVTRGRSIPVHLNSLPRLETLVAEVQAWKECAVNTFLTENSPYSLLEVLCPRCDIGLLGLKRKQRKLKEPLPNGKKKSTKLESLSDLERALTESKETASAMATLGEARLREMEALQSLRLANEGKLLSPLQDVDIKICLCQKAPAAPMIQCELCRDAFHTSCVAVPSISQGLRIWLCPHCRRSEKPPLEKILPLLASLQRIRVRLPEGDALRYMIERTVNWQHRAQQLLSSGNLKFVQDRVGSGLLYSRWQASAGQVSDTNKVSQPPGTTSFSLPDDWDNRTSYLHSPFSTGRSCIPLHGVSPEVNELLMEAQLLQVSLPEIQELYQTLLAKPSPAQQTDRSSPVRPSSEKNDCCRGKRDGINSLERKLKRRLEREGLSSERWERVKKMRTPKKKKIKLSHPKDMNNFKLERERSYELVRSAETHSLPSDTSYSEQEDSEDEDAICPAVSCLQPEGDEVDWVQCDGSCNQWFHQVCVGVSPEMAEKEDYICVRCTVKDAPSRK

Nucleosome core particles (NCPs), recombinant Xenopus laevis histone octamer on the Widom 601 DNA (complex)
Kd: 20.3 nM and 27.7 nM
